According to PMC8053096 (Nucleic Acids Research, 2021):

Biological target: the molecule itself
Experiment: SEC

B1: MsmLhr C-terminal domain, MsmLhr-(863-1507) (domain or fragment, Mycobacterium smegmatis, UniProt A0QT91 863-1507, looked up)
chain: SPLAERRAAALALDTVLLSELLGRVELRELLDPAVVASTSAQLQHLTPERAARDAEGVADLLRLLGPLTEADIAQRCTADNIGAWLDGLHAAKRALPVTYAGQTWWAAVEDIGLLRDGIGVPVPVGVPAAFTESASDPLGDLIGRYARTRGPFTTEQTAARFGLGVRVASDVLSRMAVDGRLIRGEFAADLSGEQWCDAQVLKILRRRSLAALRAQVEPVSTDAYARFLPSWQHVGSTNTTGIDGLATVIEQLAGVPIPASAVESLVFPQRVRDYQPAMLDELLASGEVMWSGAGQIGNGDGWVAFHLADTAPLTLTHGAEIEFTDTHRVILETLGHGGAYFFRQLTDGTVEGTAGQELKQALWELIWAGWVTGDTFAPVRAVLSGPRRSGAPAHRQRQRPPRLSRYSVAHAQTRGTDPTVSGRWSALPAAEPDSTVRAHFQAELLLGRHGVLTKGAVGAEGVPGGFATLYKVLSTFEDAGRCQRGYFVESLGGAQFAVASTVDRLRSYLDNVDPERPEYHAVVLAATDPANPYGAALGWPTDSEAHRPGRKAGALVALVDGRLVWFLERGGRSLLSFGADADAQRAAAGALTDLVSAGRIPSLLVERINGVAVLDPDVDAERAVVQDALLGAGLSRTPRGLRLR
binding result: binds

B2: full-length Escherichia coli Lhr (enzyme, Escherichia coli K-12 MG1655)
chain: SEFELRRQACMADNPDPSSLLPDVFSPATRDWFLRAFKQPTAVQPQTWHVAARSEHALVIAPTGSGKTLAAFLYALDRLFREGGEDTREAHKRKTSRILYISPIKALGTDVQRNLQIPLKGIADERRRRGETEVNLRVGIRTGDTPAQERSKLTRNPPDILITTPESLYLMLTSRARETLRGVETVIIDEVHAVAGSKRGAHLALSLERLDALLHTSAQRIGLSATVRSASDVAAFLGGDRPVTVVNPPAMRHPQIRIVVPVANMDDVSSVASGTGEDSHAGREGSIWPYIETGILDEVLRHRSTIVFTNSRGLAEKLTARLNELYAARLQRSPSIAVDAAHFESTSGATSNRVQSSDVFIARSHHGSVSKEQRAITEQALKSGELRCVVATSSLELGIDMGAVDLVIQVATPLSVASGLQRIGRAGHQVGGVSKGLFFPRTRRDLVDSAVIVECMFAGRLENLTPPHNPLDVLAQQTVAAAAMDALQVDEWYSRVRRAAPWKDLPRRVFDATLDMLSGRYPSGDFSAFRPKLVWNRETGILTARPGAQLLAVTSGGTIPDRGMYSVLLPEGEEKAGSRRVGELDEEMVYESRVNDIITLGATSWRIQQITRDQVIVTPAPGRSARLPFWRGEGNGRPAELGEMIGDFLHLLADGAFFSGTIPPWLAEENTIANIQGLIEEQRNATGIVPGSRHLVLERCRDEIGDWRIILHSPYGRRVHEPWAVAIAGRIHALWGADASVVASDDGIVARIPDTDGKLPDAAIFLFEPEKLLQIVREAVGSSALFAARFRECAARALLMPGRTPGHRTPLWQQRLRASQLLEIAQGYPDFPVILETLRECLQDVYDLPALERLMRRLNGGEIQISDVTTTTPSPFATSLLFGYVAEFMYQSDAPLAERRASVLSLDSELLRNLLGQVDPGELLDPQVIRQVEEELQRLAPGRRAKGEEGLFDLLRELGPMTVEDLAQRHTGSSEEVASYLENLLAVKRIFPAMISGQERLACMDDAARLRDALGVRLPESLPEIYLHRVSYPLRDLFLRYLRAHALVTAEQLAHEFSLGIAIVEEQLQQLREQGLVMNLQQDIWVSDEVFRRLRLRSLQAAREATRPVAATTYARLLLERQGVLPATDGSPALFASTSPGVYEGVDGVMRVIEQLAGVGLPASLWESQILPARVRDYSSEMLDELLATGAVIWSGQKKLGEDDGLVALHLQEYAAESFTPAEADQANRSALQQAIVAVLADGGAWFAQQISQRIRDKIGESVDLSALQEALWALVWQGVITSDIWAPLRALTRSSSNARTSTRRSHRARRGRPVYAQPVSPRVSYNTPNLAGRWSLLQVEPLNDTERMLALAENMLDRYGIISRQAVIAENIPGGFPSMQTLCRSMEDSGRIMRGRFVEGLGGAQFAERLTIDRLRDLATQATQTRHYTPVALSANDPANVWGNLLPWPAHPATLVPTRRAGALVVVSGGKLLLYLAQGGKKMLVWQEKEELLAPEVFHALTTALRREPRLRFTLTEVNDLPVRQTPMFTLLREAGFSSSPQGLDWG
binding result: binds
